This passage reports parasite growth with 30 µM rGpA, strains 3D7, Dd2 and FVO/FCR1 and stoichiometry N results from PMC4173783.

For assay [1], the target named is Plasmodium falciparum EBA-175 region II (P. falciparum).
Assay [2] deals with recombinant GpA extracellular domain fused to Fc and His tag (rGpA-Fc-His) (human) (UniProt P02724). The experiment in a line: AUC.
Assay [3] shares this target. The experiment in a line: SDS-PAGE without and with reducing agent.

For the substance “recombinant GpA extracellular domain fused to Fc and His tag (rGpA-Fc-His) (from UniProt P02724 23-84) (Fc fusion)”, in assay [1], the parasite growth with 30 µM rGpA, strains 3D7, Dd2 and FVO/FCR1 was found to be 50%. Further, the stoichiometry N in assay [2] and in assay [3] was 2 in each case.
